Data from patent publication US20170313769A1 (Pfizer, published 2017).

How the values were obtained:
Cynomolgus monkey IFNβ [1] = molecular target: T1, Cynomolgus monkey IFNβ (cynomolgus monkey, UniProt O77812 22-187); assay: ELISA (summary value); cynomolgus monkey IFNβ
T1 construct: also called cyno-IFNβ

[2] = molecular target: T2, Human IFNβ (mature human interferon beta) (human, UniProt P01574 22-187); assay: cell-based or functional assay
Rabbit IFNβ = molecular target: T3, Rabbit IFNβ (rabbit); assay: plate ELISA, rabbit IFNβ coated at 10 ng/mL
T3 chain: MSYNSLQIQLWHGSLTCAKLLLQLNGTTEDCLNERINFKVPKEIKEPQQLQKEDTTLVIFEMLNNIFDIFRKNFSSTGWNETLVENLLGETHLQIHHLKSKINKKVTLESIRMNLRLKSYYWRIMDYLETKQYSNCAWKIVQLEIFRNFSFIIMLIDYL

[3] = molecular target: T2, Human IFNβ (mature human interferon …); assay: plate ELISA, human IFNβ coated at 5 µg/mL, antibody titrated from 30 nM
Human IFNγ = molecular target: T4, Human IFNγ (human, UniProt P01579 24-166, limits assumed); assay: plate ELISA, IFNγ coated at 5 µg/mL
T4 construct: also called IFNγ (type II)
T4 sequence (looked up): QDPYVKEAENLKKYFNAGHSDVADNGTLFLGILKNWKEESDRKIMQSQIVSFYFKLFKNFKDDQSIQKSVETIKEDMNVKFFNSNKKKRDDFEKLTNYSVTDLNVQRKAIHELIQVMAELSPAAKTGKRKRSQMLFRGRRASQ

Cynomolgus monkey IFNβ [4] = molecular target: T1, Cynomolgus monkey IFNβ; assay: plate ELISA, cynomolgus IFNβ coated at 5 µg/mL, antibody titrated from 30 nM
[5] = molecular target: T2, Human IFNβ (mature human interferon …); assay: SPR, Biacore T200; antibody amine-coupled on CM5 chip, human IFNβ as analyte, 1:1 model

T1 sequence (O77812 22-187): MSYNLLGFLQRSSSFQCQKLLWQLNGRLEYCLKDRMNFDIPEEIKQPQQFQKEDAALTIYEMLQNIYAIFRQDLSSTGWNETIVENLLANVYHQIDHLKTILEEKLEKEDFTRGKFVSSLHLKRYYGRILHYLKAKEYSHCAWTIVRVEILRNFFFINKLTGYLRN

EC50 (Cynomolgus monkey IFNβ [1]): 25 pM
IC50, IFNβ induced luciferase activity in HEK293 ISRE-Luc cells [2]: 28.8 pM
IC50, M×A (M×1) gene expression in human dermal fibroblasts stimulated with recombinant IFNβ [2]: 29.4 pM
IC50, inhibition of IFNβ induced STAT1 phosphorylation in U937 cells (phosflow) [2]: 29.8 pM
IC50, neutralization of IFNβ induced STAT1 phosphorylation [2]: 7.7 pM
EC50 (Rabbit IFNβ): 2950 pM
EC50 [3]: 15.1 pM
binding result (Human IFNγ): no binding
EC50 (Cynomolgus monkey IFNβ [4]): 24.7 pM
Kd [5]: 36 pM
B1: CTI-AF1 (antibody, human IgG1, kappa, V domains shown)
VH: QVQLVQSGAEVKKPGSSVKVSCKASGYTFSRYWMHWVRQAPGQGLEWMGHIDPSDSYTYYNQKFKGRVTITADESTSTAYMELSSLRSEDTAVYYCARWDYGNLLFEYWGQGTLVTVSS
VL: DIQMTQSPSSLSASVGDRVTITCRTSQDIGNYLNWYQQKPGKAFKLLIYSTSRLHSGVPSRFSGSGSGTDFTLTISSLQPEDFATYYCQQGIILPITFGGGTKVEIKR
notes: Humanized IgG1; The C-terminal K of the heavy chain is printed as optional, '(K)'; also called anti-IFNβ antibody; humanized IgG1 antibody against interferon beta
